1 substance from doi:10.1101/2021.12.08.471876 can be followed below.

What is called Kd is the concentration at which binding is half-saturated.

The target of this experiment is purified recombinant GRP78 protein (GRP78-His) (human) (UniProt P11021). The experiment in a line: ITC. Background: ITC needs no label: the signal is the heat of the interaction.
Chain of purified recombinant GRP78 protein (GRP78-His) (human) (P11021 19-654): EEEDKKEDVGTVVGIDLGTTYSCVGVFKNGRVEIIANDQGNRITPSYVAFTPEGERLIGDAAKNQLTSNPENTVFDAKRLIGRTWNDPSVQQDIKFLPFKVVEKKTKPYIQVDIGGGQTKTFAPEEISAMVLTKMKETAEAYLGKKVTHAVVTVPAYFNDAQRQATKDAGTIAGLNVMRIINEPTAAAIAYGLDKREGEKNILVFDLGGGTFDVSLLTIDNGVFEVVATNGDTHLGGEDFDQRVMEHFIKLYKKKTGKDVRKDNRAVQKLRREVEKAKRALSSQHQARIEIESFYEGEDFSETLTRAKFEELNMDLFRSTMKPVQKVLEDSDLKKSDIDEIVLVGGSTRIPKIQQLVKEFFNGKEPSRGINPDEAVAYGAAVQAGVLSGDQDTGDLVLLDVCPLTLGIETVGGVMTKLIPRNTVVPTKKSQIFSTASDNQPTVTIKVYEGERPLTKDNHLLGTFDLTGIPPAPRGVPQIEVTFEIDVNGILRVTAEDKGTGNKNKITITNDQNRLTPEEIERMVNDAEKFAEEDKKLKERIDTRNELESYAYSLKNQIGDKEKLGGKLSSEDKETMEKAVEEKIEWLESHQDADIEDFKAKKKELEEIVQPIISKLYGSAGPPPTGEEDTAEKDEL

Chain of HBV particles (P03146 whole entry, looked up): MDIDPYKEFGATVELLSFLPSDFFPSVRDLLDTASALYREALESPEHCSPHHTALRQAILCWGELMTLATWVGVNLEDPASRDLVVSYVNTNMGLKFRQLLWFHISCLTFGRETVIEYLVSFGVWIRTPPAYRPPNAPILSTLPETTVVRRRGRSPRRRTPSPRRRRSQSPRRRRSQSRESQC
Chain of HBV particles (P03138 whole entry, looked up): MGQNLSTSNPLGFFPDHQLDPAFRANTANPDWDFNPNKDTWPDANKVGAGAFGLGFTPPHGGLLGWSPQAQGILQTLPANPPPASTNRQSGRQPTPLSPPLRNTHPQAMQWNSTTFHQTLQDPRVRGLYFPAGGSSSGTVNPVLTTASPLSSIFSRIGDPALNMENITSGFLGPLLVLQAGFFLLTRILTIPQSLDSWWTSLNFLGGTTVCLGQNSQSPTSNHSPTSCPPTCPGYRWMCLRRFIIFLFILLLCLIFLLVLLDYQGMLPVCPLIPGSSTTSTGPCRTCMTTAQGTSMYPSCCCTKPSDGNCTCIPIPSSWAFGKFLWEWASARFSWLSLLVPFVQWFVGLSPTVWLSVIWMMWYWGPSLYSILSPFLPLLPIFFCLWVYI

As for “HBV particles (from UniProt P03138;P03146) (complex)”, the Kd was 75.6 µM.
